Broadly, the stoichiometry N is a count of units in the complex or per binding partner.

The test has as its target HeV PNT3 (aa 200-310 of the Hendra virus P/V protein) (Hendra virus) (UniProt O55778). As to the kind of experiment: SAXS.

Substance “HeV PNT3 (aa 200-310 of the Hendra virus P/V protein) (from UniProt O55778 200-310) (domain or fragment)” had a stoichiometry N of 100 monomers.

The record behind these values is doi:10.1101/497024.
